Data on three molecules can be found in patent US20260242485A1 (LEPU BIOPHARMA, published 2026).

Experiment [1] concerns the target T1, human CD16B-NA1 ECD his tag protein (human, UniProt O75015 17-200).
T1 construct: extracellular domain; Bought protein; also called hCD16B-NA1-his; hCD16B-NA1 protein
Description: ELISA, hCD16B-NA1-his coated at 2 ug/mL, OD450. The protocol: (§1) In order to determine the binding ability of the chimeric Abs to human CD16A protein, ELISA-based binding assay was performed as followed. […] The mixture was incubated for 1 hour at room temperature (RT). The primary antibody was recognized by a detective antibody against human IgG Fc which was conjugated with horseradish peroxidase (HRP) (Jackson Immuno, Cat. No. 109-035-008). Tetramethylbenzidine (TMB), a substrate of HRP, was added to the wells to visualize the binding signal. After sufficient color development, stop solution was added to the wells. The absorbance of the signal was detected at 450 nm with Envision multilabel plate readers (PerkinElemer). The graph and statistics analysis were generated with four-parameter nonlinear regression curve fit in Graphpad Prism 9 software.
(§2) In order to determine the binding ability of the chimeric Abs to human CD16B protein, ELISA binding assay was performed as previously described. Three spliced isoforms of CD16B including human CD16B-NA1 ECD his tag protein (hCD16B-NA1-his, Acro Bio, Cat: No. CDB-H5227), human CD16B-NA2 ECD his tag protein (hCD16B-NA2-his, Acro Bio, Cat: No. CDB-H82Ea) and human CD16B-SH-his protein, were used as the coating antigens at 2 μg/mL.
Background: In an ELISA, binding on a coated surface is turned into a signal by an enzyme label.

In experiment [2] the target is T2, human CD16A-158V expressed on CHO-K1 cells (human, UniProt P08637 17-254).
T2 construct: whole, on cells; also called hCD16A-158V; CHO-K1-hCD16A-158V
T2 sequence (P08637 17-254 F176V): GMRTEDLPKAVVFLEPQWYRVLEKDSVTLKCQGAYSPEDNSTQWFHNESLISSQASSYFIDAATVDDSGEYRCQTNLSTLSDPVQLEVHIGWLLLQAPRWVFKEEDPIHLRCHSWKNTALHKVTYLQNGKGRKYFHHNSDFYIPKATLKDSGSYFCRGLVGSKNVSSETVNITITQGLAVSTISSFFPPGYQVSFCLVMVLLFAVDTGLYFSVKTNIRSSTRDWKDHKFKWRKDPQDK
Put plainly: flow cytometry on antigen-expressing CHO-K1 cells. The protocol:
(§3) In order to evaluate the binding activity of the chimeric mAbs to human CD16A expressed on cells, cell-based binding assay was employed as followed. […] The antibody dilutions were incubated with 1×10⁵ indicated cells in the 96-well microplate for one hour at 4° C. The antibodies binding to the antigen on the cell surface were detected with PE fluorophore-conjugated anti-human IgG Fc secondary antibodies (ThermoFisher scientific, Cat. No. 12-4998-82) at a dilution rate of 1:1000. Cells were analyzed by flow cytometer LSRFortessa Cell Analyzer (BD Biosciences). Data were analyzed with Flowjo 10.0 software. The graph and statistics analysis were generated with four-parameter nonlinear regression curve fit in Graphpad Prism 9 software.
(§4) CHO-K1 cells stably expressing cynomolgus CD16 were used in the following test.

Experiment [3] concerns the target T3, human CD16A-158F expressed on CHO-K1 cells (human, UniProt P08637 17-254).
T3 construct: whole, on cells
Put plainly: flow cytometry on antigen-expressing CHO-K1 cells. As for the experimental part:
as §3, §4
(In general: In flow cytometry, cells or beads pass a laser one at a time.)

Experiment [4] has as its target T4, human CD32B expressed on CHO-K1 cells (human, UniProt P31994 43-310).
T4 construct: whole, on cells; also called hCD32B
T4 sequence (looked up): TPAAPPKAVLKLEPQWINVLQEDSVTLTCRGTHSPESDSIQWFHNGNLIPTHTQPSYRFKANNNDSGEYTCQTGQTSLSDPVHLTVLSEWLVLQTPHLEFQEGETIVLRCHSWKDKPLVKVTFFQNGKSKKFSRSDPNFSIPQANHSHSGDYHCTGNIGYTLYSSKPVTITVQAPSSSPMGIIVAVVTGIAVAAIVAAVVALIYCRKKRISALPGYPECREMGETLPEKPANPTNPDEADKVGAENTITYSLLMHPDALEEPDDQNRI
Description: flow cytometry, CHO-K1-hCD32B cells, geometric mean. As for the experimental part: as §3
(§5) To exclude the non-specific binding of the CD16A chimeric antibody to human CD16B and CD32B expressed on cells, cell-based binding assay was performed as described above. Firstly, CHO-K1 cells were stably transferred with one human CD16B spliced isoform hCD16B-NA1 and human CD32B. Then, the cells were incubated with the indicated concentrations of CD16A chimeric antibodies.

The target of experiment [5] is T5, hCD16A-158F-his protein (human, UniProt P08637 17-208).
T5 construct: Bought protein
T5 sequence (P08637 17-208 limits assumed): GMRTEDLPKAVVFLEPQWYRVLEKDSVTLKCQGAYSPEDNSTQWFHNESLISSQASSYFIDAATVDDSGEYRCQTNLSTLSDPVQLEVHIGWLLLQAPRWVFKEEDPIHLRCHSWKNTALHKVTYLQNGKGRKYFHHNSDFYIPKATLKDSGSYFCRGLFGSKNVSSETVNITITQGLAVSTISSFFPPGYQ
Put plainly: ELISA, plate-coated his-tagged antigen 2 ug/mL. The protocol:
as §1
(§6) In order to determine the cross reactivity of the chimeric Abs to cynomolgus CD16, ELISA binding assay was performed as described above. Recombinant cyno CD16 ECD his tag protein (cynoCD16-his, Acro Bio, Cat. No. FC6-C52H9) was used as the coating antigen at 2 μg/mL.

In experiment [6] the target is T6, hCD16A-158V-his protein (human, UniProt P08637 17-208).
T6 construct: extracellular domain; Bought protein; also called human CD16A-158V-his; Human CD16A-158V (protein)
T6 sequence (P08637 17-208 F176V): as the sequence (P08637 17-208 limits assumed) above, with F160V counted along it
Put plainly: ELISA, plate-coated his-tagged antigen 2 ug/mL. The protocol:
as §1, §6

Experiment [7] has as its target T7, human CD16B-NA2 ECD his tag protein (human, UniProt O75015 17-200).
T7 construct: extracellular domain; Bought protein; also called hCD16B-NA2-his; hCD16B-NA2 protein
Description: ELISA, hCD16B-NA2-his coated at 2 ug/mL, OD450. The protocol:
as §1, §2

Experiment [8] deals with T8, human CD16B-NA1 expressed on CHO-K1 cells (human, UniProt O75015 17-200).
T8 construct: whole, on cells; also called hCD16B-NA1; CHO-K1-hCD16B-NA1
T8 sequence (O75015 other isoform, or with tags, fused parts or gaps): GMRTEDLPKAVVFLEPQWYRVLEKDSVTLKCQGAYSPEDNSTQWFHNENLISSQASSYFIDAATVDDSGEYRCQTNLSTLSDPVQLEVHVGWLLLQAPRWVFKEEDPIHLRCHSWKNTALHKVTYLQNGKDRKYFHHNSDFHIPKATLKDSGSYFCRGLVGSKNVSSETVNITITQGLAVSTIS
Put plainly: flow cytometry, CHO-K1-hCD16B-NA1 cells, geometric mean. As for the experimental part:
as §3, §5

In experiment [9] the target is T5, hCD16A-158F-his protein. Put plainly: SPR (Biacore 8K), antibody captured on Protein A chip, antigen at 50 nM. As for the experimental part: (§7) The binding affinity of the chimeric antibodies to human CD16A was determined with Biacore™. Briefly, the antibodies were captured with a Protein A chip. […] The antigen was allowed to dissociate for 500 s. The experiment was carried out on a Biacore™ 8K. Data analysis was carried out using Biacore™ 8K evaluation software.
A general note: Surface plasmon resonance follows binding to a sensor surface in real time, without labels.

For experiment [10], the target named is T6, hCD16A-158V-his protein. Described as above. The protocol:
as §7

T7 sequence (O75015 17-200 N65S limits assumed): as the sequence (O75015 other isoform, or with tags, fused parts or gaps) above, with R20S, N49S, D66N, V90I counted along it
T1 sequence (O75015 other isoform, or with tags, fused parts or gaps limits assumed): as the sequence (O75015 other isoform, or with tags, fused parts or gaps) above
T3 sequence (P08637 17-254): as the sequence (P08637 17-254 F176V) above, with V160F counted along it

B1: 42F5H2-hIgG1 LALAPG (antibody)
heavy: QVQLQQPGAELVRPGASVKLSCKASGYTFTSYWMNWVKQRPGQGLEWIGMIDPSDSETHHNQMFKDKATLTVDKSSSTAYMQLSSLTSEDSAVYYCAKWLPPYAMDYWGQGTSVTVSSASTKGPSVFPLAPSSKSTSGGTAALGCLVKDYFPEPVTVSWNSGALTSGVHTFPAVLQSSGLYSLSSVVTVPSSSLGTQTYICNVNHKPSNTKVDKKVEPKSCDKTHTCPPCPAPEAAGGPSVFLFPPKPKDTLMISRTPEVTCVVVDVSHEDPEVKFNWYVDGVEVHNAKTKPREEQYNSTYRVVSVLTVLHQDWLNGKEYKCKVSNKALGAPIEKTISKAKGQPREPQVYTLPPSREEMTKNQVSLTCLVKGFYPSDIAVEWESNGQPENNYKTTPPVLDSDGSFFLYSKLTVDKSRWQQGNVFSCSVMHEALHNHYTQKSLSLSPGK
light: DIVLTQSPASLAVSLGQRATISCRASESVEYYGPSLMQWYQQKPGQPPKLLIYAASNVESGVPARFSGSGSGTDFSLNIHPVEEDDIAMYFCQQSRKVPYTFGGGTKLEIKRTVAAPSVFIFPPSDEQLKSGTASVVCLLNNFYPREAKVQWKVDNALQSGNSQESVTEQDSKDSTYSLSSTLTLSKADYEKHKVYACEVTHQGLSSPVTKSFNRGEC
notes: also called 42F5H2 chimeric Ab
By EC50 is commonly meant the concentration needed to bring the measured effect to its halfway point. Higher therefore signals lower potency in that assay. For orientation: Kd means the constant that tells how readily two partners part at equilibrium. As usually defined, the koff is the rate constant with which the complex falls apart. As usually defined, the kon is the rate constant with which the complex forms. Read a low kon as slower complex formation. Regarding B1, the binding result was “no binding (tested: 20 nM)” in experiment [1], “no binding (tested: 100 nM)” in experiment [4], “no binding (tested: 20 nM)” in experiment [7] and “no binding (tested: 100 nM)” in experiment [8]. Besides, the EC50 worked out at 0.47 nM in experiment [2], 0.5 nM in experiment [3], 0.42 nM with hCD16A-158F-his protein [5] and 0.11 nM with hCD16A-158V-his protein [6]. Further, the Kd was determined as 0.226 nM with hCD16A-158F-his protein [9] and 0.303 nM with hCD16A-158V-his protein [10]. Further, the koff with hCD16A-158F-his protein [9] worked out at 0.000873 s⁻¹; with hCD16A-158V-his protein [10], 0.00139 s⁻¹. In addition, the figures for the kon in the experiment with hCD16A-158F-his protein [9] and with hCD16A-158V-his protein [10] were 3.86e+06 M⁻¹ s⁻¹ and 4.59e+06 M⁻¹ s⁻¹, respectively.

B2: 23H7E4-hIgG1 LALAPG (antibody)
heavy: QVQLQQPGAELVRPGASVKLSCKASGYTFTSYWLNWVKQRPGQGLEWIGMIDPSDSETHYNQVFKDKATLTVDKSSTTAYMQLSSLTSEDSAVYYCARWMVTKKTFDYWGQGTTLTVSSASTKGPSVFPLAPSSKSTSGGTAALGCLVKDYFPEPVTVSWNSGALTSGVHTFPAVLQSSGLYSLSSVVTVPSSSLGTQTYICNVNHKPSNTKVDKKVEPKSCDKTHTCPPCPAPEAAGGPSVFLFPPKPKDTLMISRTPEVTCVVVDVSHEDPEVKFNWYVDGVEVHNAKTKPREEQYNSTYRVVSVLTVLHQDWLNGKEYKCKVSNKALGAPIEKTISKAKGQPREPQVYTLPPSREEMTKNQVSLTCLVKGFYPSDIAVEWESNGQPENNYKTTPPVLDSDGSFFLYSKLTVDKSRWQQGNVFSCSVMHEALHNHYTQKSLSLSPGK
light: DIVLTQSPASLAVSLGQRATISCRASESVEYYGPSLMQWYQQKPGQPPKLLIYAASNVESGVPARFSGSGSGTDFSLNIHPVEEDDIAMYFCQQSRKVPYTFGGGAKLEIKRTVAAPSVFIFPPSDEQLKSGTASVVCLLNNFYPREAKVQWKVDNALQSGNSQESVTEQDSKDSTYSLSSTLTLSKADYEKHKVYACEVTHQGLSSPVTKSFNRGEC
notes: also called 23H7E4 chimeric Ab
On to B2, for which the binding result is given as “no binding (tested: 20 nM)” in experiment [1], “no binding (tested: 100 nM)” in experiment [4], “no binding (tested: 20 nM)” in [7] and “no binding (tested: 100 nM)” in [8]. Moreover, the EC50 amounted to 0.8 nM in experiment [2], 0.77 nM in experiment [3], 0.44 nM in the experiment with hCD16A-158F-his protein [5] and 0.13 nM with hCD16A-158V-his protein [6]. Also, the Kd was found to be 2.45 nM in the experiment with hCD16A-158F-his protein [9] and 3.81 nM in the experiment with hCD16A-158V-his protein [10]. Besides, the koff in the experiment with hCD16A-158F-his protein [9] was determined as 0.00772 s⁻¹; in the experiment with hCD16A-158V-his protein [10], 0.0107 s⁻¹. The results for the kon in the experiment with hCD16A-158F-his protein [9] and with hCD16A-158V-his protein [10] were 3.16e+06 M⁻¹ s⁻¹ and 2.81e+06 M⁻¹ s⁻¹, respectively.

B3: 37B3G11-hIgG1 LALAPG (antibody)
heavy: QVQLQQPGAELVRPGASVKLSCKASGYTFTTYWMNWVKQRPGQGLEWIGMIDPSDSETHYNQMFKDKATLTVDKSSSTAYMQLSSLTSEDSAVYYCAVPSLYNSNYRFAYWGQGTLVTVSAASTKGPSVFPLAPSSKSTSGGTAALGCLVKDYFPEPVTVSWNSGALTSGVHTFPAVLQSSGLYSLSSVVTVPSSSLGTQTYICNVNHKPSNTKVDKKVEPKSCDKTHTCPPCPAPEAAGGPSVFLFPPKPKDTLMISRTPEVTCVVVDVSHEDPEVKFNWYVDGVEVHNAKTKPREEQYNSTYRVVSVLTVLHQDWLNGKEYKCKVSNKALGAPIEKTISKAKGQPREPQVYTLPPSREEMTKNQVSLTCLVKGFYPSDIAVEWESNGQPENNYKTTPPVLDSDGSFFLYSKLTVDKSRWQQGNVFSCSVMHEALHNHYTQKSLSLSPGK
light: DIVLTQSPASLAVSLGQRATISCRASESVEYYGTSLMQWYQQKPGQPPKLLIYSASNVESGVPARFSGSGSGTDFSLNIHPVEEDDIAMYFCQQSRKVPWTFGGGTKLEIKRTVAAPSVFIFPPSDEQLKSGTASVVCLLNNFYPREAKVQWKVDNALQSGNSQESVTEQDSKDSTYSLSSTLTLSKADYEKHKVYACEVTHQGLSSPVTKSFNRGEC
notes: also called 37B3G11 chimeric Ab
With B3, the binding result in experiment [1] was “no binding (tested: 20 nM)”; in experiment [4], “no binding (tested: 100 nM)”; in experiment [7], “no binding (tested: 20 nM)”; in experiment [8] it was “no binding (tested: 100 nM)”. For the same molecule, the EC50 in experiment [2] came out at 0.68 nM; in experiment [3], 0.74 nM; with hCD16A-158F-his protein [5], 1.2 nM; with hCD16A-158V-his protein [6] it was 0.17 nM. Also, the Kd was 1.62 nM with hCD16A-158F-his protein [9] and 1.26 nM in the experiment with hCD16A-158V-his protein [10]. Further, the koff with hCD16A-158F-his protein [9] is 0.00531 s⁻¹; with hCD16A-158V-his protein [10] it was 0.00377 s⁻¹. In addition, the kon with hCD16A-158F-his protein [9] is 3.27e+06 M⁻¹ s⁻¹; with hCD16A-158V-his protein [10], 2.98e+06 M⁻¹ s⁻¹.
